# Data as given in publication doi:10.1101/498865 (2018).
# Assays:
# [1] = target: T1, Cam1 (fission yeast calmodulin), amino-terminally acetylated (S. pombe, UniProt P05933 1-150, amino-terminal (Nt) acetylation); test: FRET; first site (Kd1; <0.1 uM)
# [2] = target: T1, Cam1 (fission yeast calmodulin), …; test: FRET; second site (Kd2)
# [3] = target: T1, Cam1 (fission yeast calmodulin), …; test: FRET
# T1 sequence (P05933 whole entry): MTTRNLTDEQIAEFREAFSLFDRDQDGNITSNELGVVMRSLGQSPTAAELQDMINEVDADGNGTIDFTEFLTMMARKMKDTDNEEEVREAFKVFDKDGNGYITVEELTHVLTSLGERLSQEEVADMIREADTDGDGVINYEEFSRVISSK
Kd [1] [nM],Kd [2] [nM],Kd [3] [nM],Binder
90,540,,"CyPet-DTMATRIQRAWRSYVRRRDEAAACIQKLWNRNKVNMELERVRNEGTK-YPet (domain or fragment, not fully specified) [CyPet-Myo1^IQ12-S742D-YPet FRET reporter protein]"
,,60,DTMATRIQRAWRSYVRRRSEA (domain or fragment) [CyPet-Myo1^IQ1-YPet FRET reporter protein]
40,,,DTMATRIQRAWRSYVRRRSEAAACIQKLWNRNKVNMELERVRNEGTK (domain or fragment) [CyPet-Myo1^IQ12-YPet FRET reporter protein]
